This is an account of results in patent CN1977043A (CBR INST FOR BIOMED RES INC, dated 2007).

This assay deals with IgM CM-22. The assay can be described thus: SPR (Biacore CM5), N2 10.5-120μM injected over amine-coupled IgM CM-22, steady-state fit to 1:1 Langmuir isotherm.
Chain of IgM CM-22 (chain, as listed by the source, chain 1 of 2): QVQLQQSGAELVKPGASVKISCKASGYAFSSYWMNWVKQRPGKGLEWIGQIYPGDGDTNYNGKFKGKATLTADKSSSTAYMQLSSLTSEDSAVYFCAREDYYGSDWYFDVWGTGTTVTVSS
Chain of IgM CM-22 (chain, as listed by the source, chain 2 of 2): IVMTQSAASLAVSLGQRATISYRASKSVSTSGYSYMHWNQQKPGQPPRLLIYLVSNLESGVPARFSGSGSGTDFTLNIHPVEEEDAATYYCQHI

B1: self peptide N2 (peptide)
peptide: LMKNMDPLNDNV
notes: also called 自身肽N2; N2肽
With B1, the Kd – broadly, the equilibrium constant for the complex coming apart – worked out at 123 µM.
